Results on 1 molecule are retold here after article doi:10.1101/2024.03.19.585385 (bioRxiv, 2024).

For this assay, the target named is T1, RNAP α subunit (αI) (T. thermophilus, UniProt Q5SHR6 1-315).
T1 sequence (looked up): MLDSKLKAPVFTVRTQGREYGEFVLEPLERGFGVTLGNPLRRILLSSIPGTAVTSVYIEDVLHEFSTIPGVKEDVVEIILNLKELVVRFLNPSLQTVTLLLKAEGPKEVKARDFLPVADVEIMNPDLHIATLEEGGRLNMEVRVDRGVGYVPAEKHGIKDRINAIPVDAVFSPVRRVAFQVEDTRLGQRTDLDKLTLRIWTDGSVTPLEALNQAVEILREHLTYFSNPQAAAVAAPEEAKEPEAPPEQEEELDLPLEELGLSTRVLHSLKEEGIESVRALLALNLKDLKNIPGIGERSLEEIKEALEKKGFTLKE
Kind of assay: cryo-EM structure.

B1: ribosomal protein S10 (NusE) (natural protein, T. thermophilus, UniProt Q5SHN7 1-105, looked up)
chain: MPKIRIKLRGFDHKTLDASAQKIVEAARRSGAQVSGPIPLPTRVRRFTVIRGPFKHKDSREHFELRTHNRLVDIINPNRKTIEQLMTLDLPTGVEIEIKTVGGGR
Take B1: the binding result is reported as “binds”.
